This is an account of results in patent publication US20070117770, “Human ribosomal DNA (rDNA) and ribosomal RNA (rRNA) nucleic acids and uses thereof” (Cylene Pharmaceuticals, Inc., published 2007).

Some results are limits rather than exact numbers.

The target in series [1] is T1, Nucleolin (MBP fusion, lacking N-terminal acidic stretches domain) (Homo sapiens, UniProt P19338 P19338:284-710). The series is described as follows: filter; 60 mM KCl, 1 mM MgCl2. Conditions: label: 32P. The method, then:
The assay also was conducted in a filter-binding format. In such forms of the assay, 0.2 nM of ³²P-labeled quadruplexes were incubated in 50 uL of the binding buffer (12.5 mM Tris-HCl, pH 7.6, 60 mM KCl, 1 mM MgCl2, 0.1 mM EDTA, 5% glycerol, 0.1 mg/mL BSA) for 10 min at 85 C and then for 10 min on ice and mixed with another 50 uL of binding buffer containing increasing amounts of recombinant protein Nucleolin. The protein-quadruplex mixtures were incubated for 30 min at ambient temperature and filtered through mixed cellulose ester membrane filters (Millipore) with gentle suction. The filters were washed twice with […] of binding buffer, dried and OptiPhase ‘SuperMix’ scintillation cocktail (Perkin Elmer) was added to the wells. Radioactivity was assayed with MicroBeta scintillation counter (Perkin Elmer). Binding curves were constructed and apparent Kd's and Bmax's for the complexes were calculated using the GraphPad Prizm software program (GraphPad Software). In the following table, the nucleic acid ligand is designated in the first column using the nomenclature described herein; the second column provides the nucleotide sequence of the nucleic acid ligand; the third column is the conformation of the ligand as determined by circular dichroism (M is mixed, P is parallel, A is antiparallel, C is complex, SS is single-stranded and ND is not determined); the fourth column is the dissociation constant determined by the filter binding assay of nucleolin protein and the nucleic acid ligand; the fifth column is a Bmax constant determined by the filter binding assay, which is the percent of active nucleic acid ligand in each assay; and the sixth column presents the concentration of Compound A-1 required to dissociate half of the complexed nucleic acid ligand and nucleolin protein, as determined by the EMSA assay described above.

The target of series [2] is T1, Nucleolin (MBP fusion, lacking …). Nature of the series: filter; apparent Kd; Bmax 41%; 12.5 mM Tris-HCl pH 7.6, 60 mM KCl, 1 mM MgCl2, ambient temperature. Conditions: label: 32P; G4 mixed. As to the method:
(§1) The assay also was conducted in a filter-binding format. In such forms of the assay, 0.2 nM of ³²P-labeled quadruplexes were incubated in 50 uL of the binding buffer (12.5 mM Tris-HCl, pH 7.6, 60 mM KCl, 1 mM MgCl2, 0.1 mM EDTA, 5% glycerol, 0.1 mg/mL BSA) for 10 min at 85 C and then for 10 min on ice and mixed with another 50 uL of binding buffer containing increasing amounts of recombinant protein Nucleolin. The protein-quadruplex mixtures were incubated for 30 min at ambient temperature and filtered through mixed cellulose ester membrane filters (Millipore) with gentle suction. The filters were washed twice with […] of binding buffer, dried and OptiPhase ‘SuperMix’ scintillation cocktail (Perkin Elmer) was added to the wells. Radioactivity was assayed with MicroBeta scintillation counter (Perkin Elmer). Binding curves were constructed and apparent Kd's and Bmax's for the complexes were calculated using the GraphPad Prizm software program (GraphPad Software). […]

Series [3] shares this target. Nature of the series: filter; Bmax 47%; 60 mM KCl, 1 mM MgCl2. Conditions: label: 32P. As to the method:
as §1

For series [4] the target is unchanged. Nature of the series: filter; Bmax 35%; 60 mM KCl, 1 mM MgCl2. Particulars: label: 32P; G4 motif, CD not determined. The method, then:
as §1

The target is the same in series [5]. Nature of the series: filter; Bmax 26%; 60 mM KCl, 1 mM MgCl2. Conditions: label: 32P; G4 mixed. The method, then: as §1
The target is the same in series [6]. The series is described as follows: filter; Bmax 53%; 60 mM KCl, 1 mM MgCl2. Particulars: label: 32P; G4 mixed. The method, then:
as §1

For series [7] the target is unchanged. The series is described as follows: filter; Bmax 43%; 60 mM KCl, 1 mM MgCl2. Conditions: label: 32P; G4 motif, CD not determined. As to the method: as §1
Series [8] shares this target. Nature of the series: filter; Bmax 55%; 60 mM KCl, 1 mM MgCl2. Particulars: label: 32P; G4 motif, CD not determined. The method, then:
as §1

The target is the same in series [9]. Nature of the series: filter; Bmax 82%; 60 mM KCl, 1 mM MgCl2. Particulars: label: 32P; G4 motif, CD not determined. As to the method: as §1
Series [10] has the same target. The series is described as follows: filter; Bmax 37%; 60 mM KCl, 1 mM MgCl2. Particulars: label: 32P; G4 parallel. The method, then:
as §1

The target is the same in series [11]. The series is described as follows: filter; Bmax 52%; 60 mM KCl, 1 mM MgCl2. Particulars: label: 32P; G4 motif, CD not determined. The method, then: as §1
For series [12] the target is unchanged. The series is described as follows: filter; Bmax 84%; 60 mM KCl, 1 mM MgCl2. Conditions: label: 32P; G4 mixed. The method, then:
as §1

For series [13] the target is unchanged. The series is described as follows: filter; Bmax 32%; 60 mM KCl, 1 mM MgCl2. Particulars: label: 32P. The method, then:
as §1

For series [14] the target is unchanged. Nature of the series: filter; Bmax 66%; 60 mM KCl, 1 mM MgCl2. Conditions: label: 32P; G4 mixed. As to the method:
as §1

The target is the same in series [15]. The series is described as follows: filter; Bmax 21%; 60 mM KCl, 1 mM MgCl2. Particulars: label: 32P; G4 motif, CD not determined. The method, then: as §1
Series [16] shares this target. Nature of the series: filter; Bmax 50%; 60 mM KCl, 1 mM MgCl2. Conditions: label: 32P. The method, then: as §1
Series [17] has the same target. The series is described as follows: filter; Bmax 16%; 60 mM KCl, 1 mM MgCl2. Conditions: label: 32P; G4 motif, CD not determined. The method, then:
as §1

Series [18] has the same target. Nature of the series: filter; Bmax 65%; 60 mM KCl, 1 mM MgCl2. Conditions: label: 32P; G4 motif, CD not determined. The method, then:
as §1

Series [19] has the same target. The series is described as follows: filter; Bmax 49%; 60 mM KCl, 1 mM MgCl2. Particulars: label: 32P; G4 motif, CD not determined. As to the method:
as §1

The target is the same in series [20]. Nature of the series: filter; Bmax 100%; sequence taken from Example 6 table. Conditions: label: 32P; G4 complex. The method, then:
as §1

The target is the same in series [21]. The series is described as follows: filter; Bmax 33%; 60 mM KCl, 1 mM MgCl2. Conditions: label: 32P; G4 parallel. The method, then: as §1
The target is the same in series [22]. Nature of the series: filter; Bmax 20%; 60 mM KCl, 1 mM MgCl2. Conditions: label: 32P; G4 motif, CD not determined. The method, then: as §1
For series [23] the target is unchanged. The series is described as follows: filter; Bmax 31%; 60 mM KCl, 1 mM MgCl2. Particulars: label: 32P; G4 motif, CD not determined. As to the method: as §1

T1 sequence (P19338 284-710, one chain of several): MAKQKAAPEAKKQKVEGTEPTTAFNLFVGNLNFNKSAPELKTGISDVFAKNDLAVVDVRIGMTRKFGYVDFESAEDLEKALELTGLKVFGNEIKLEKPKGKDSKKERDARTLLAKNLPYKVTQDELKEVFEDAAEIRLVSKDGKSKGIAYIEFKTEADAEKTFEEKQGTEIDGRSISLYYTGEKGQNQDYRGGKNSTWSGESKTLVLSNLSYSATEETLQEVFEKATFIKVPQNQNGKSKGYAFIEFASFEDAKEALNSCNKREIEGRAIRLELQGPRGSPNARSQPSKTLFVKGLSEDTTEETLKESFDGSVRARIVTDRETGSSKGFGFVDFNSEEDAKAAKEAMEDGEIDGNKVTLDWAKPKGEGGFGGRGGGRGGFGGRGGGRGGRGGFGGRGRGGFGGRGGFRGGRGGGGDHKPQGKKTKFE

B1: 13236T (structured_DNA)
DNA: AGGGACGGGGACCGGCGGGCCACGGGG
As to B1, in [1] (G4 motif, CD not determined), the Kd was over 30 nM.

B2: 1196NT (structured_DNA)
DNA: GGGTGGACGGGGGGGCCTGGTGGGG
B2: the Kd in series [2] was 4.2 nM.

B3: 11888T (structured_DNA)
DNA: AGGGGACACCGGGGGGGCGCCGGGGG
The molecule B3 gave a Kd in series [3] (G4 motif, CD not determined) of 0.2 nM.

B4: GGA4 (structured_DNA)
DNA: GGAGGAGGAGGA
B4 had a Kd in series [1] (G4 parallel) of over 30 nM.

B5: 8440T (structured_DNA)
DNA: AGGGGCGGCGGGGGAAGGGAGGGCGGGTGGAGGGGTCGGGAGGAACGGGGGGCGGG
In series [4], B5 returned a Kd of 0.3 nM.

B6: 6183NT (structured_DNA)
DNA: GGGTCGGGGGCGGTGGTGGGCCCGCGGGGG
In turn, B6 registered a Kd in [5] of 2.2 nM.

B7: 10985T (structured_DNA)
DNA: AGGGGAGGGGGGAGGACGGGGAGCGGGGG
As to B7, the Kd in series [4] was found to be 0.2 nM.

B8: 7733T (structured_DNA)
DNA: GGGAGGGGCACGGGCCGGGGGCGGGACGGG
The molecule B8 showed a Kd in [6] of 0.8 nM.

B9: 9024T (structured_DNA)
DNA: AGGGGCGGGGGCGCGGGGAGGAGGGGTGGG
In turn, B9 yielded a Kd in [7] of 0.3 nM.

B10: 2160T (structured_DNA)
DNA: AGGGCGGCGGGCGGGGAAGAGGGCACAGACGGGCGAGGGCCGGGGACCGCGAGGGCAAGGGCACCCGGG
In series [8], B10 showed a Kd of 0.7 nM.

B11: 10885T (structured_DNA)
DNA: AGGGTGGGGCGGGGGAGGGCCGCGAGGGGGGTGCCCCGGGCGTGGGGGGGG
Regarding B11, in series [9], the Kd is 0.2 nM.

B12: 13079NT (structured_DNA)
DNA: GGGGTGGGGGGGAGGG
B12: the Kd in series [10] worked out at 2.6 nM.

B13: 13173NT (structured_DNA)
DNA: GGGCCGGGACGGGGTCCGGGG
Regarding B13, in [1] (G4 mixed), the Kd is over 30 nM.

B14: 10951T (structured_DNA)
DNA: AGGGCGCGGGGTGGGGAGGG
For B14, the Kd in [11] is 0.2 nM.

B15: 5701NT (structured_DNA)
DNA: AGGGAGGGAGACGGGGGGG
For the molecule B15, the Kd in series [12] turned out to be 3.2 nM.

B16: 11345T (structured_DNA)
DNA: AGGGGGGAACGGGGGGCGGACGGGGCCGGGGGGGTAGGGCGGGGGG
B16: in [13] (G4 motif, CD not determined), the Kd came to 0.3 nM.

B17: 2957NT (structured_DNA)
DNA: GGGTCGGGGGGTGGGGCCCGGGCCGGGG
Regarding B17, the Kd in series [14] stood at 2.7 nM.

B18: 3468T (structured_DNA)
DNA: AGGGACCGGTGGGGCCGGGGCGGGG
In turn, B18 gave a Kd in series [15] of 2.4 nM.

B19: 1310T (structured_DNA)
DNA: AGGGACGCCTGGGGAAGGGAGGGGG
As for B19, the Kd in series [16] (G4 motif, CD not determined) is 4.4 nM.

B20: 11028NT (structured_DNA)
DNA: GGGGCGCGGCGGGGGGAGAAGGGTCGGGGCGGCAGGGG
Take B20: the Kd in series [13] (G4 mixed) turned out to be 2.7 nM.

B21: 7370T (structured_DNA)
DNA: AGGGGCGGCGGGGAGGAGGAGGGGCGCGGGG
Molecule B21 showed a Kd in series [17] of 1.1 nM.

B22: 10137T (structured_DNA)
DNA: AGGGGCTCCGGGGGCGGGGAGCGGGGCGTGGGCGGGAGGAGGGG
For B22, in series [18], the Kd came out at 0.4 nM.

B23: 8716T (structured_DNA)
DNA: AGGGAGGACGCGGGGCCGGGGGGCGGAGACGGG
For B23, the Kd in series [19] came out at 3.1 nM.

B24: 8762NT (structured_DNA)
DNA: CGGAGGGCGCGCGGGTCGGGGCGGCGGCGGCGGCGGCGGTGGCGGCGGCGGCGGGGGCGGCGGG
Consider B24, for which, in series [20], the Kd was found to be 0.3 nM.

B25: hTel (structured_DNA)
DNA: AGGGTTAGGGTTAGGGTTAGGG
With B25, in [1] (G4 antiparallel), the Kd is over 30 nM.

B26: 6914T (structured_DNA)
DNA: GGGCCCGCGGGGGGAGGGGGAAGGGGCGGG
In series [16] (G4 mixed), B26 came in with a Kd of 0.8 nM.

B27: Myc27 (structured_DNA)
DNA: TGGGGAGGGTGGGGAGGGTGGGGAATT
For B27, in series [21], the Kd came to 4.4 nM.

B28: 3500T (structured_DNA)
DNA: AGGGCGGACGGGAGGGAGCGAGCGGGCGCGGGGG
With B28, in series [22], the Kd stood at 1.1 nM.

B29: 6374NT (structured_DNA)
DNA: GGGGGCGGGAACCCCCGGGCGCCTGTGGG
The molecule B29 gave a Kd in series [3] (G4 mixed) of 5.5 nM.

B30: 8904T (structured_DNA)
DNA: AGGGGGTGGGCGCCGGGAGGGGGG
B30 came in with a Kd in [23] of 0.4 nM.

B31: 7499T (structured_DNA)
DNA: AGGGCGGGCGGCGGGGCGGG
With B31, in series [17], the Kd stood at 1.1 nM.
